{
  "source": "paper PMC3625992",
  "about": "(Structure (London, England : 1993), 2012)",
  "binders": {"B1": {"name": "second CARD of human RIG-I (CARD2; residues 95–190) (domain or fragment, UniProt O95786 95-190, looked up)", "chain": "KKIEKLEEYRLLLKRLQPEFKTRIIPTDIISDLSECLINQECEEILQICSTKGMMAGAEKLVECLLRSDKENWPKTLKLALEKERNKFSELWIVEK"}},
  "biological_target": "T1, helicase and C-terminal regulatory domains of human RIG-I (helicase-CTD; residues 230–925) (human, UniProt O95786 230-925)",
  "T1 sequence (looked up)": "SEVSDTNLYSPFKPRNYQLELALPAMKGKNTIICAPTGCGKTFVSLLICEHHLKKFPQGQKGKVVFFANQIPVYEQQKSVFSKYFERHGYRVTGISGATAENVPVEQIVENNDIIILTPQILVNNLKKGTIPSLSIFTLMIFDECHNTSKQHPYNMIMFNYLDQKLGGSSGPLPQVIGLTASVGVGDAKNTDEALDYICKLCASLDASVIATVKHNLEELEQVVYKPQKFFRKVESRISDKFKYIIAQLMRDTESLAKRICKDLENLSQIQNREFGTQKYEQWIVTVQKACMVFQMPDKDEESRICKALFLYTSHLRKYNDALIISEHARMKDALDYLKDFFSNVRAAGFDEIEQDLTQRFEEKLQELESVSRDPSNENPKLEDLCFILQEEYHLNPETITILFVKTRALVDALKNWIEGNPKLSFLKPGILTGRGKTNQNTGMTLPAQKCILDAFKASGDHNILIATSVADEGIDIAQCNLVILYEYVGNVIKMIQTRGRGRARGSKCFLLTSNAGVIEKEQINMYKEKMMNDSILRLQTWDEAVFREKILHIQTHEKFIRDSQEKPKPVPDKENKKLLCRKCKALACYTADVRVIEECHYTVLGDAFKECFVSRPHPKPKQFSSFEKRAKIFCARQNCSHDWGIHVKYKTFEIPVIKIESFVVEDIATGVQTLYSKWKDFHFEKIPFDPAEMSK",
  "assay": "NMR titration",
  "data": [
    {"binder": "B1", "values": [
      {"measurement": "Kd", "value": "1.66 ± 1.3", "unit": "µM"}
    ]}
  ]
}
